Reference: article PMC5642512

Assays:
Nur77 [1] = target: Nur77 (UniProt P22736); test: co-IP of transfected tagged proteins; conditions: reference: wild-type Flag-Bcl-2
Nur77 [2] = target: Nur77 (UniProt P22736); test: co-IP anti-Flag (Nur77), anti-Myc (Bcl-2) blot; conditions: reference: wild-type Myc-Bcl-2; sites S87

Q: For “Bcl-2 (from UniProt P10415) Flag-Bcl-2/S87A”, which “binding against the reference” value (Nur77 [1]; sites S87) is on record?
A: Its value is “weaker”.

Q: Which “binding against the reference” value (Nur77 [1]; sites T56) does the source give for “Bcl-2 (from UniProt P10415) Flag-Bcl-2/T56A” here?
A: Its value is “weaker”.

Q: With “Bcl-2 (from UniProt P10415) Myc-Bcl-2/S87A” as the substance, how does the “binding against the reference” value (Nur77 [2]) read?
A: The value was “lost”.
